Source: publication PMC4513882
Read-outs that look alike come from different tables or passages of the source.

B1: ssDNA90 (ssDNA)
DNA: TGGAGAATCCCGGTGCCGAGGCCGCTCAATTGGTCGTAGACAGCTCTAGCACCGCTTGAAGGAGATATACATACATTAATTGCGTTGCGC
B2: ssDNA57 (ssDNA)
DNA: TGGAGAATCCCGGTGCCGAGGCCGCTCAATTGGTCGTAGACAGCTCTAGCACCGCTT
B3: dsDNA57 (dsDNA)
DNA 1: TGGAGAATCCCGGTGCCGAGGCCGCTCAATTGGTCGTAGACAGCTCTAGCACCGCTT
DNA 2: AAGCGGTGCTAGAGCTGTCTACGACCAATTGAGCGGCCTCGGCACCGGGATTCTCCA
B4: RNA:DNA40 (DNA:RNA)
RNA: CACCAAUUCGUCUUAGGGUUAAUCUUGAAGCUAGAGUUAA
DNA: TTAACTCTAGCTTCAAGATTAACCCTAAGACGAATTGGTG
B5: ssRNA90 (ssRNA)
RNA: GGGGAAUUGUGAGCGGAUAACAAUUCCCCUCUAGAAAUAAUUUUGUUUAACUUUAAGAAGGAGAUAUACAUAUGCACCAUCAUCAUCAUC

How the values were obtained:
SAMHD1 wt [1] = target: T1, SAMHD1 wt (human, UniProt Q9Y3Z3 1-626); test: competition
SAMHD1 T592E = SAMHD1 T592E (human, UniProt Q9Y3Z3 1-626, T592E); test: fluorescence anisotropy
SAMHD1 Q548A = SAMHD1 Q548A (human, UniProt Q9Y3Z3 1-626, Q548A); test: fluorescence anisotropy
SAMHD1 wt [2] = target: T1, SAMHD1 wt; test: fluorescence anisotropy
SAMHD1 wt [3] = target: T1, SAMHD1 wt; test: fluorescence anisotropy; remark: listed apart in the source
SAMHD1 ΔSAM (Δ112) = SAMHD1 ΔSAM (Δ112) (human, UniProt Q9Y3Z3 113-626, del1-112); test: fluorescence anisotropy
SAMHD1 R451E = SAMHD1 R451E (human, UniProt Q9Y3Z3 1-626, R451E); test: fluorescence anisotropy
SAMHD1 wt [4] = target: T1, SAMHD1 wt; test: competition; remark: listed apart in the source

T1 sequence (Q9Y3Z3 whole entry): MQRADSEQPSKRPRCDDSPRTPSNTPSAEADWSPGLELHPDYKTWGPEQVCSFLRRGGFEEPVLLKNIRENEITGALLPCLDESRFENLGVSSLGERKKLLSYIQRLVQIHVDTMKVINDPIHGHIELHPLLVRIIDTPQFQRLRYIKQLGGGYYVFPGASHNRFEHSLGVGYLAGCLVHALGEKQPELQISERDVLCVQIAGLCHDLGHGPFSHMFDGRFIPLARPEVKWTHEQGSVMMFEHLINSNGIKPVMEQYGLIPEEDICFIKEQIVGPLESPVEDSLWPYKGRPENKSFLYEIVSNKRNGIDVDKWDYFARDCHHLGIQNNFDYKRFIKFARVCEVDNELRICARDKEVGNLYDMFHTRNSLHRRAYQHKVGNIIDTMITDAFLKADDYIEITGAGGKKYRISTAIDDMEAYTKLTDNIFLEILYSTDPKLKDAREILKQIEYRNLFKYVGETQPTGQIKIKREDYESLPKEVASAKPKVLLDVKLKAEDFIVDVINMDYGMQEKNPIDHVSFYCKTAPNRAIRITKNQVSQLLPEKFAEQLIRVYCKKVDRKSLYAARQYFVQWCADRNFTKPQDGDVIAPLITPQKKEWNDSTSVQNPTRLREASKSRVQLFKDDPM
Sequence of SAMHD1 Q548A (Q9Y3Z3 whole entry Q548A): as the sequence (Q9Y3Z3 whole entry) above, with Q548A counted along it
Sequence of SAMHD1 T592E (Q9Y3Z3 whole entry T592E): as the sequence (Q9Y3Z3 whole entry) above, with T592E counted along it
Sequence of SAMHD1 R451E (Q9Y3Z3 whole entry R451E): as the sequence (Q9Y3Z3 whole entry) above, with R451E counted along it
Sequence of SAMHD1 ΔSAM (Δ112) (Q9Y3Z3 113-626, stated change not applied): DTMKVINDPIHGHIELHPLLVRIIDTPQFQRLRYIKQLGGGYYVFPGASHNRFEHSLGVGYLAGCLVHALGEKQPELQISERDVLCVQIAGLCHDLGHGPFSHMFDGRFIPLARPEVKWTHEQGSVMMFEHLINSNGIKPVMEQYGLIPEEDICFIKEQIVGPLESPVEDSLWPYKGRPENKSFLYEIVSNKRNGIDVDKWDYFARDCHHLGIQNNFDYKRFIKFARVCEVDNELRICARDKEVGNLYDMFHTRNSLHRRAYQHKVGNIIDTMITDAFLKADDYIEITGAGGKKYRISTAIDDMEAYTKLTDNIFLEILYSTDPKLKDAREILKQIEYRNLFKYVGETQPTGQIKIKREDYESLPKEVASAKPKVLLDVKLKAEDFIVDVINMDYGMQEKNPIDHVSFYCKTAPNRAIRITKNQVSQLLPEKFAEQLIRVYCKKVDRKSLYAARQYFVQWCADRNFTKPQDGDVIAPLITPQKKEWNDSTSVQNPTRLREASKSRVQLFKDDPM

Binder | binding result (SAMHD1 T592E) | binding result (SAMHD1 Q548A) | apparent K (half saturation) (SAMHD1 wt [2]) [nM] | also measured
B1 | – | – | – | binding result (SAMHD1 wt [1]): binds
B2 | binds | binds | 450 ± 130 | –
B3 | – | – | – | apparent K (half saturation) (SAMHD1 wt [3]): 18 ± 2 µM
B4 | – | – | 2000 ± 400 | –
CACCAAUUCGUCUUAGGGUUAAUCUUGAAGCUAGAGUUAA (ssRNA) [ssRNA40] | binds | binds | – | binding result (SAMHD1 ΔSAM (Δ112)): binds; binding result (SAMHD1 R451E): binds
B5 | – | – | – | binding result (SAMHD1 wt [4]): binds
